Results published in paper PMC5084695 (Biochemistry, 2016).

Biological target: the molecule itself
Experiment: SEC-MALS

B1: SbnA (wild type, Staphylococcus aureus strain Newman) (enzyme, UniProt A6QDA0 1-326, looked up)
chain: MIEKSQACHDSLLDSVGQTPMVQLHQLFPKHEVFAKLEYMNPGGSMKDRPAKYIIEHGIKHGLITENTHLIESTSGNLGIALAMIAKIKGLKLTCVVDPKISPTNLKIIKSYGANVEMVEEPDAHGGYLMTRIAKVQELLATIDDAYWINQYANELNWQSHYHGAGTEIVETIKQPIDYFVAPVSTTGSIMGMSRKIKEVHPNAQIVAVDAKGSVIFGDKPINRELPGIGASRVPEILNRSEINQVIHVDDYQSALGCRKLIDYEGIFAGGSTGSIIAAIEQLITSIEEGATIVTILPDRGDRYLDLVYSDTWLEKMKSRQGVKSE
modifications: PLP (pyridoxal 5'-phosphate) covalently bound to Lys47 by an internal Schiff base (as isolated)
stoichiometry N: 2
